Results: article PMC3119050, “High-Resolution X-Ray Structure of the Trimeric Scar/WAVE-Complex Precursor Brk1” (PLoS ONE, 2011)

T1: Scar(1-225)/AbiA(1-149)/DdBrk1-complex (Dictyostelium discoideum, UniProt Q54NF8 1-225; Q55FT9 1-149; Q54X65 1-68)
T1 construct: AbiA (Abi) of Dictyostelium discoideum, residues 1-149, untagged; remnant after PreScission cleavage; Brk1 of Dictyostelium discoideum, 68 residues; In the exchange experiment the unlabelled DdBrk1 chain of this complex is replaced by DdBrk1_488; also called Scar/AbiA/DdBrk1 subcomplex; source: E. coli BL21 DE3, coexpressed, purified (glutathione sepharose, PreScission cleavage, Superdex-S75); …
T1 sequence 1: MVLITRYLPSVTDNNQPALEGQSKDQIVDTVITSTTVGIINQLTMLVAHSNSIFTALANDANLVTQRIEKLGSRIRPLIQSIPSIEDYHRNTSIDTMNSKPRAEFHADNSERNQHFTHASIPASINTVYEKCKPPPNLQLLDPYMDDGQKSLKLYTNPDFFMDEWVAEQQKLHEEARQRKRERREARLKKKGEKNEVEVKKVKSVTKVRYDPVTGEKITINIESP
T1 sequence 2: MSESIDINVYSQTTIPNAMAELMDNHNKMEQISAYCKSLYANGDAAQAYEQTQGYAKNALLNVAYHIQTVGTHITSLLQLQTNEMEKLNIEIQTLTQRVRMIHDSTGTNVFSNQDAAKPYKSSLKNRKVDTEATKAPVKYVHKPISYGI
T1 sequence 3: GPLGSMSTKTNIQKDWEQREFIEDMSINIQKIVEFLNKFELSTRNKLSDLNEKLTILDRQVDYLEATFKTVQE


Tests used:
[1] = target: the molecule itself; test: AUC; sedimentation equilibrium, 43 µM and 171 µM DdBrk1, PBS, 10°C, 18,000 and 26,000 rpm, absorbance at 280 nm, global fit with a single species
[2] = target: the molecule itself; test: AUC; sedimentation velocity with fluorescence detection, 8 to 800 nM DdBrk1_488, PBS, 20°C, 50,000 rpm; trimer to monomers
[3] = target: T1, Scar(1-225)/AbiA(1-149)/DdBrk1-complex; test: SEC; 100 nM DdBrk1_488 incubated with the unlabelled complex (1.4 µM MBP-DdBrk1) for two hours on ice; Superdex-S200 10/300, PBS, 4°C, absorbance at 488 nm and 280 nm; conditions: both partners purified

| Binder | stoichiometry N [1] | stoichiometry N [2] | binding result [3] |
| --- | --- | --- | --- |
| Dictyostelium discoideum Brk1 (DdBrk1), GST tag removed (natural protein, extra amino acids left at the N-terminus after PreScission cleavage of the GST tag; Brk1 (HSPC300 ortholog) of Dictyostelium discoideum, 68 residues; Calculated molar mass 8.61 kg/mol per chain; homotrimer by sedimentation equilibrium; also called DdHSPC300; HSPC300; source: E. coli BL21 DE3, purified (glutathione sepharose, PreScission cleavage, Mono Q, Superdex-S75); not shown: GST, N-terminal, …) GPLGSMSTKTNIQKDWEQREFIEDMSINIQKIVEFLNKFELSTRNKLSDLNEKLTILDRQVDYLEATFKTVQE | 3 |  |  |
| DdBrk1_488 (DdBrk1 mutant M1C labelled with Alexa 488) (natural protein, Dictyostelium discoideum, Alexa 488 (Alexa-488 Fluor C5 maleimide) on the cysteine that replaces methionine 1, extra amino acids left at the N-terminus after PreScission cleavage of the GST tag; Brk1 of Dictyostelium discoideum, 68 residues, first methionine replaced by cysteine; Trimer at the highest concentrations examined; dissociates in the lower nanomolar range; also called DdBrk1 M1C; DdBrk1_M1C; not shown: GST, N-terminal, cleaved) GPLGSCSTKTNIQKDWEQREFIEDMSINIQKIVEFLNKFELSTRNKLSDLNEKLTILDRQVDYLEATFKTVQE |  | 3 | binds |
